# Target: AGE-albumin (advanced glycation end-product albumin), Sigma-Aldrich
# Assay: cell-based or functional assay
binder,measurement,value
"sRAGE (soluble Receptor for Advanced Glycation End-products), cat. RD172116100, Biovendor (receptor) MRGSHHHHHHGMASAQNITARIGEPLVLKCKGAPKKPPQRLEWKLNTGRTEAWKVLSPQGGGPWDSVARVLPNGSLFLPAVGIQDEGIFRCQAMNRNGKETKSNYRVRVYQIPGKPEIVDSASELTAGVPNKVGTCVSEGSYPAGTLSWHLDGKPLVPNEKGVSVKEQTRRHPETGLFTLQSELMVTPARGGDPRPTFSCSFSPGLPRHRALRTAPIQPRVWEPVPLEEVQLVVEPEGGAVAPGGTVTLTCEVPAQPSPQIHWMKDGVPLPLPPSPVLILPEIGPQDQGTYSCVATHSSHGPQESRAVSISIIEPGEEGPTAGEGFDKVREAEDSPQHM",cell viability of HT22 cells by MTT assay (percent relative to control),101%

# Reference: patent US20200289575A1 (NSAGE, published 2020)
